Data on 1 molecule can be found in paper PMC3118421.

This experiment concerns the target human dimeric IgA2 anti-NIP, wild type (not stated | human | mouse). Kind of experiment: rosetting assay.

B1: streptococcal IgA-binding M protein Arp4 (M4) (natural protein)
chain: AEIKKPQADSAWNWPKEYNALLKENEELKVEREKYLSYADDKEKDPQYRALMGENQDLRKREGQYQDKIEELEKERKEKQERQEQLERQYQIEADKHYQEQQKKHQQEQQQLEAEKQKLAKDKQISDASRQGLSRDLEASRAAKKELEAEHQKLKEEKQISDASRQGLSRDLEASREAKKKVEADLAALTAEHQKLKEDKQISDASRQGLSRDLEASREAKKKVEADLAEANSKLQALEKLNKELEEGKKLSEKEKAELQARLEAEAKALKEQLAKQAEELAKLKGNQTPNAKVAPQANRSRSAMTQQKRTLPST
The molecule B1 returned a percent inhibition of dIgA binding to hFcα/μR (rosettes, Arp4 at 100 μg/mL) of 50%.
